Assay results published in article PMC8276268 (Biochemistry, 2012).
Values belong to the molecule of their own block, whether it stands above or below them.

Columns and labels:
[1] = target: ABCG2^Myc-TM5*L3* (full-length ABCG2 with TM5—ECL3 replaced by TM1—ECL1) (human) (UniProt Q9UNQ0); assay: cross-linking
[2] = target: ABCG2^Myc-ECL3* (full-length ABCG2 with ECL3 replaced by ECL1) (human) (UniProt Q9UNQ0); assay: cross-linking
[3] = target: ABCG2^Myc-TM6* (ABCG2 with TM6 replaced by TM2) (human) (UniProt Q9UNQ0); assay: cross-linking
[4] = target: ABCG2^Myc-TM5* (ABCG2 with TM5 replaced by TM1) (human) (UniProt Q9UNQ0); assay: cross-linking
[5] = target: ABCG2^Myc-L3*TM6* (full-length ABCG2 with ECL3—TM6 replaced by ECL1—TM2) (human) (UniProt Q9UNQ0); assay: cross-linking
[6] = target: T1, HA-tagged full-length ABCG2 (ABCG2^HA-WT) (human, UniProt Q9UNQ0 1-655, R482G); assay: co-IP
T1 sequence (looked up): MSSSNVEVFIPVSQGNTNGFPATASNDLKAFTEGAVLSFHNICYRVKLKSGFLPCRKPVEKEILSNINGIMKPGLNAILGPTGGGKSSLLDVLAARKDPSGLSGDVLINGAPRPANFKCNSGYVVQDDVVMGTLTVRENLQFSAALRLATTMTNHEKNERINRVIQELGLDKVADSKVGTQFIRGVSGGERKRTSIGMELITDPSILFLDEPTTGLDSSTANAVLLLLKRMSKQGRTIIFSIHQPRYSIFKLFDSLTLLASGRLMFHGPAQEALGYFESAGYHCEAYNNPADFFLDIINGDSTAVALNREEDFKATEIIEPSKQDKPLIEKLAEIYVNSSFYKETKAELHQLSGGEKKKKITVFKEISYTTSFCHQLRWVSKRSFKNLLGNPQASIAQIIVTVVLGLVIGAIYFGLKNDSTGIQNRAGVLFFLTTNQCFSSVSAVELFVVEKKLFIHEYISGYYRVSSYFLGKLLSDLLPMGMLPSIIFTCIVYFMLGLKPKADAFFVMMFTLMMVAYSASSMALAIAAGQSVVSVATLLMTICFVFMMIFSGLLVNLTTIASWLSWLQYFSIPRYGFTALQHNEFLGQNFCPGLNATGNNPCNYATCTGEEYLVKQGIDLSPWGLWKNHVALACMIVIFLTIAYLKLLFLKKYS

percent of the protein cross-linked as dimer [1]: 29%
percent of the protein cross-linked as pentamer [1]: 51%
percent of the protein cross-linked as trimer [1]: 8%
Molecule: ABCG2^Myc-TM5*L3* (full-length ABCG2 with TM5—ECL3 replaced by TM1—ECL1) (from UniProt Q9UNQ0 1-655) (natural protein)

percent of the protein cross-linked as dimer [2]: 26%
percent of the protein cross-linked as pentamer [2]: 43%
percent of the protein cross-linked as trimer [2]: 11%
Molecule: ABCG2^Myc-ECL3* (full-length ABCG2 with ECL3 replaced by ECL1) (from UniProt Q9UNQ0 1-655) (natural protein)

percent of the protein cross-linked as dimer [3]: 18%
percent of the protein cross-linked as tetramer [3]: 49%
percent of the protein cross-linked as trimer [3]: 29%
Molecule: ABCG2^Myc-TM6* (ABCG2 with TM6 replaced by TM2) (from UniProt Q9UNQ0 1-655) (natural protein)

percent of the protein cross-linked as dimer [4]: 31%
percent of the protein cross-linked as tetramer [4]: 10%
percent of the protein cross-linked as trimer [4]: 32%
Molecule: ABCG2^Myc-TM5* (ABCG2 with TM5 replaced by TM1) (from UniProt Q9UNQ0 1-655) (natural protein)

percent of the protein cross-linked as dimer [5]: 11%
percent of the protein cross-linked as hexamer [5]: 89%
Molecule: ABCG2^Myc-L3*TM6* (full-length ABCG2 with ECL3—TM6 replaced by ECL1—TM2) (from UniProt Q9UNQ0 1-655) (natural protein)

Co-IP with WT, relative to the wild-type construct [6]: 100%
B1: Myc-tagged wild-type ABCG2 (ABCG2^Myc-WT) (natural protein, human, UniProt Q9UNQ0 1-655, looked up)
chain: T1 sequence (looked up)
